The numbers were not newly measured in article PMC2888830, which cites them from elsewhere.

pKd: −log10 of the molar value.

For this series, the target named is integrin αIIbβ3 (Homo sapiens) (UniProt P08514).

Broadly, the pKd is −log10 of the Kd, conventionally taken in molar units. disagregin (from UniProt P36235): the negative-log Kd (pKd) was 7.40.
